Assay [1] addresses full-length avian ANP32A (Gallus gallus) (Gallus gallus). Description: NMR titration.
The target in assay [2] is LRR of ANP32A alone (not stated (human and Gallus gallus ANP32A were used)). In words: NMR titration.

In assay [1], “627-NLS domains of PB2, E627 form (amino acids 538-759, avian H5N1 A/duck/Shantou/4610/2003) (domain or fragment)” came in with a Kd greater than 3000 µM. On to “the 627 domain (E627 or K627 not stated) (domain or fragment)”, for which the Kd in assay [2] was greater than 1500 µM.

By Kd is commonly meant a measure of binding affinity in units of concentration.

The record behind these values is article PMC7374565.
